Laboratory results from PMC5727935, “The distinctive cell division interactome of Neisseria gonorrhoeae” (BMC Microbiology, 2017).

Legend:
[1] = target: N. gonorrhoeae FtsW, bacterial two-hybrid fusion (Neisseria gonorrhoeae CH811) (UniProt B4RQC6); experiment: two-hybrid; bacterial two-hybrid (Di Lallo): fusions to P22 and 434 repressor ends in E. coli R721, 34 °C; residual β-galactosidase activity against R721 without plasmids (2504 ± 34 Miller units); less than 50% counts as a positive interaction
[2] = target: N. gonorrhoeae FtsK, bacterial two-hybrid fusion (Neisseria gonorrhoeae CH811); experiment: as above
[3] = target: the molecule itself; experiment: 90° light scattering + negative-stain electron microscopy; FtsZNg about 6 μM in MES buffer (50 mM MES-NaOH, 50 mM KCl, 10 mM MgCl2, pH 7.5), 2 mM GTP, 30 °C; polymerisation
[4] = target: His-FtsANg (Neisseria gonorrhoeae CH811) (UniProt Q5F6M2); experiment: SPR; FtsANg immobilised on the HTE chip; polymerized FtsZNg (with GTP) at 6 and 12 μM injected for 120 s, 300 s dissociation; MES buffer with 0.1% BSA, 0.05% Tween-20, 1 mM ATP, pH 7.5; Langmuir 1:1 kinetic fit
[5] = target: T1, N. gonorrhoeae FtsW, bacterial two-hybrid fusion (Neisseria gonorrhoeae CH811, UniProt B4RQC6 1-462); experiment: two-hybrid; bacterial two-hybrid (Di Lallo): fusions to P22 and 434 repressor ends in E. coli R721, 34 °C; residual β-galactosidase activity against R721 without plasmids (2504 ± 34 Miller units); less than 50% counts as a positive interaction; settings: partners not purified
T1 construct: FtsW of Neisseria gonorrhoeae CH811, amplified from genomic DNA with primers P9/P10 (start codon to stop codon); Cloned in both vectors (pcIp22 and pcI434); each fusion carries one of the two repressor ends; also called FtsWNg; pcIp22-W; source: bacterial two-hybrid fusion, expressed in E. coli R721
T1 sequence (looked up): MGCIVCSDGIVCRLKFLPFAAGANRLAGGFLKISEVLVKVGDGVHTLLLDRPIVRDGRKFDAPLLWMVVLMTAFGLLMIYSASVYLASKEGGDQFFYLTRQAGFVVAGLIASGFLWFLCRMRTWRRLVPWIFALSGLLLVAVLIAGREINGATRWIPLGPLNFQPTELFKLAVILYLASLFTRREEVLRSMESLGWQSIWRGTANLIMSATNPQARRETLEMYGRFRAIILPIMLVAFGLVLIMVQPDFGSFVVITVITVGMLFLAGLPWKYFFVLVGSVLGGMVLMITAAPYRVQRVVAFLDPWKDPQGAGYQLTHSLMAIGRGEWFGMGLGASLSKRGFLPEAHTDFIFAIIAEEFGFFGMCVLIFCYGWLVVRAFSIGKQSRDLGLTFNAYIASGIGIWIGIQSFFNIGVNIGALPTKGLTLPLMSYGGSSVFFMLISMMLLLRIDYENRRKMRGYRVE

[6] = target: T2, FtsANg (analyte of the SPR with FtsQNg and FtsNNg) (Neisseria gonorrhoeae CH811, UniProt Q5F6M2 1-414); experiment: SPR; Bio-Rad XPR36, ProteOn HTE chip activated with NiSO4; His-FtsQNg or His-FtsNNg immobilised at 200 nM; two-fold dilutions of FtsANg in PBST (0.1% BSA, 0.05% Tween-20, pH 7.9), 30 μl/min, 120 s, then 300 s buffer; Langmuir 1:1 kinetic fit; settings: both partners purified
T2 construct: FtsA of Neisseria gonorrhoeae CH811; GST in PBST as the negative-control analyte hints at GST-FtsANg (surmise); source: E. coli C41 (DE3), purified
T2 sequence (looked up): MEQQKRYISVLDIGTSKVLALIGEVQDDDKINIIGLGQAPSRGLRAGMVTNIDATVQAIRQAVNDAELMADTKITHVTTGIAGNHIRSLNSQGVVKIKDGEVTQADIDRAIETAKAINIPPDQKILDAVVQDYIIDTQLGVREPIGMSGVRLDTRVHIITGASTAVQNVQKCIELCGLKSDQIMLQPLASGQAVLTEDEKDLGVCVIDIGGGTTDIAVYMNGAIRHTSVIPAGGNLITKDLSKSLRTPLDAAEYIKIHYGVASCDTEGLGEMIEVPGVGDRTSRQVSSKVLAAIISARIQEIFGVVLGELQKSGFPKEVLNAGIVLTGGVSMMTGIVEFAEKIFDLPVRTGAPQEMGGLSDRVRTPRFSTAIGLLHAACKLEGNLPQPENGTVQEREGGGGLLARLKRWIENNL

[7] = target: T3, N. gonorrhoeae FtsQ, bacterial two-hybrid fusion (Neisseria gonorrhoeae CH811, UniProt Q5F6M1 1-242); experiment: two-hybrid; bacterial two-hybrid (Di Lallo): fusions to P22 and 434 repressor ends in E. coli R721, 34 °C; residual β-galactosidase activity against R721 without plasmids (2504 ± 34 Miller units); less than 50% counts as a positive interaction; settings: partners not purified
T3 construct: FtsQ of Neisseria gonorrhoeae CH811, amplified from genomic DNA with primers P5/P6 (start codon to stop codon); Cloned in both vectors (pcIp22 and pcI434); each fusion carries one of the two repressor ends; also called FtsQNg; pcIp22-Q; source: bacterial two-hybrid fusion, expressed in E. coli R721
T3 sequence (looked up): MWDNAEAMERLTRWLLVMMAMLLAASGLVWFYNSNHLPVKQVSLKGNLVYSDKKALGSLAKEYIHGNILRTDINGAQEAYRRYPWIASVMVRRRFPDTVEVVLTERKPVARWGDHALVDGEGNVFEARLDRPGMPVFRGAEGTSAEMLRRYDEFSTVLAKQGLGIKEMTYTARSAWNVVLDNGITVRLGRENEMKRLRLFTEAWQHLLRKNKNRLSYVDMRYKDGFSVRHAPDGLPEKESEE

[8] = target: N. gonorrhoeae FtsN, bacterial two-hybrid fusion (Neisseria gonorrhoeae CH811); experiment: as above
[9] = target: N. gonorrhoeae FtsZ, bacterial two-hybrid fusion (Neisseria gonorrhoeae) (UniProt P72079); experiment: as above
[10] = target: His-FtsNNg (ligand of the SPR) (Neisseria gonorrhoeae); experiment: SPR; Bio-Rad XPR36, ProteOn HTE chip activated with NiSO4; His-FtsQNg or His-FtsNNg immobilised at 200 nM; two-fold dilutions of FtsANg in PBST (0.1% BSA, 0.05% Tween-20, pH 7.9), 30 μl/min, 120 s, then 300 s buffer; Langmuir 1:1 kinetic fit

N. gonorrhoeae FtsI, bacterial two-hybrid fusion (natural protein)
residual β-galactosidase activity [1]: 35%

N. gonorrhoeae FtsN, bacterial two-hybrid fusion (natural protein)
residual β-galactosidase activity [2]: 31%

B1: FtsZNg, His tag cleaved with thrombin (natural protein, Neisseria gonorrhoeae CH811, UniProt P72079 1-392, looked up)
chain: MEFVYDVAESAVSPAVIKVIGLGGGGCNAINNMVANNVRSVEFISANTDAQSLAKNHAAKRIQLGTNLTRGLGAGANPDIGRAAAQEDREAIEEAIRGANMLFITTGMGGGTGTGSAPVVAEIAKSLGILTVAVVTRPFSYEGKRVHVAQAGLEQLKEHVDSLIIIPNDKLMTALGEDVTMREAFRAADNVLRDAVAGISEVVTCPSEIINLDFADVKTVMSNRGIAMMGSGYAQGIDRARMATDQAISSPLLDDVTLDGARGVLVNITTAPGCLKMSELSEVMKIVNQSAHPDLECKFGAAEDETMSEDAIRITIIATGLKEKGAVDPTPEREVEAVAPSKQEQSHIVEGMIRTNRGIRTMNLTAADFDNQSVLDDFEIPAILRRQHNSDK
notes: FtsZ of Neisseria gonorrhoeae CH811, full-length ftsZ (primers P19/P20) cloned BglII/EcoRI into pET30a; also called polymerized FtsZNg; not shown: His6, N-terminal, cleaved
binding result [3]: binds | Kd [4]: 14900 nM | koff [4]: 0.00531 s⁻¹ | kon [4]: 356 M⁻¹ s⁻¹

B2: N. gonorrhoeae FtsZ, bacterial two-hybrid fusion (natural protein, Neisseria gonorrhoeae, UniProt P72079 1-392, looked up)
chain: B1 chain
notes: FtsZ of Neisseria gonorrhoeae; Cloned in both vectors (pcIp22 and pcI434); each fusion carries one of the two repressor ends; also called FtsZNg; pcIp22-Z; source: bacterial two-hybrid fusion, expressed in E. coli R721
residual β-galactosidase activity [5]: 39% | residual β-galactosidase activity [2]: 41%

B3: His-FtsQNg (natural protein, Neisseria gonorrhoeae CH811, UniProt Q5F6M1 1-242, looked up)
chain: T3 sequence (looked up)
notes: FtsQ of Neisseria gonorrhoeae CH811, full-length ftsQ (primers P17/P18) cloned BglII/EcoRI into pET30a; also called pETQ
Kd [6]: 15.1 nM | koff [6]: 0.00409 s⁻¹ | kon [6]: 272000 M⁻¹ s⁻¹

B4: N. gonorrhoeae FtsA, bacterial two-hybrid fusion (natural protein, Neisseria gonorrhoeae CH811, UniProt Q5F6M2 1-414, looked up)
chain: T2 sequence (looked up)
notes: FtsA of Neisseria gonorrhoeae CH811, amplified from genomic DNA with primers P1/P2 (start codon to stop codon); ends at Leu414 by the limits of the truncations; Cloned in both vectors (pcIp22 and pcI434); each fusion carries one of the two repressor ends; also called FtsANg; pcIp22-A; source: bacterial two-hybrid fusion, expressed in E. coli R721
residual β-galactosidase activity [7]: 48% | residual β-galactosidase activity [5]: 45% | residual β-galactosidase activity [8]: 24% | residual β-galactosidase activity [2]: 30% | residual β-galactosidase activity [9]: 40%

B5: FtsANg (analyte of the SPR with FtsQNg and FtsNNg) (natural protein)
chain: T2 sequence (looked up)
Kd [10]: 53.3 nM | koff [10]: 0.00616 s⁻¹ | kon [10]: 115000 M⁻¹ s⁻¹
